Test [1] concerns the target TrnC (Bacillus thuringiensis). As to the kind of experiment: pull-down; 6× His-tagged TrnC and non-tagged TrnD coexpressed in E. coli from a pRSFduet-1-derived construct; cell lysate purified on Ni-NTA; SDS-PAGE.
For test [2], the target named is TrnC (Bacillus thuringiensis). The test can be described thus: MST; TrnC fluorescently labeled with RED-NHS; series of diluted TrnD (or TrnD(ΔRRE), or an equimolar mixture of TrnD with TrnA or TrnB) mixed with it in capillaries; Monolith instrument; aerobic conditions.
Test [3] has as its target TrnD (Bacillus thuringiensis). As to the kind of experiment: MST; TrnD fluorescently labeled; TrnC R370A/K372A mutant as the other partner.

For orientation: stoichiometry N means a count of units in the complex or per binding partner. Broadly, the Kd is the equilibrium constant for the complex coming apart.

Substance non-tagged TrnD (enzyme) came in with a stoichiometry N in test [1] of 1.
As to “equimolar mixture of TrnD and TrnA (complex)”, in test [2], the dissociation constant Kd was 0.54 µM.
Consider TrnC R370A/K372A mutant (enzyme), for which the equilibrium dissociation constant (Kd) in test [3] was determined as 10.2 µM.
With TrnD(ΔRRE) (enzyme), the Kd in test [2] came out at 100 µM.

These data come from publication PMC12093266, “Synergistic action of two radical SAM enzymes in the biosynthesis of thuricin CD, a two-component sactibiotic” (Chemical Science, 2025).
